Reference: patent publication US20090054337A1

Target: natriuretic peptide receptor-B (NPR-B) on human aortic endothelial cells (human) (UniProt P20594)
Experiment: cell-based or functional assay

Sequence of UniProt P20594 (P20594 23-1047): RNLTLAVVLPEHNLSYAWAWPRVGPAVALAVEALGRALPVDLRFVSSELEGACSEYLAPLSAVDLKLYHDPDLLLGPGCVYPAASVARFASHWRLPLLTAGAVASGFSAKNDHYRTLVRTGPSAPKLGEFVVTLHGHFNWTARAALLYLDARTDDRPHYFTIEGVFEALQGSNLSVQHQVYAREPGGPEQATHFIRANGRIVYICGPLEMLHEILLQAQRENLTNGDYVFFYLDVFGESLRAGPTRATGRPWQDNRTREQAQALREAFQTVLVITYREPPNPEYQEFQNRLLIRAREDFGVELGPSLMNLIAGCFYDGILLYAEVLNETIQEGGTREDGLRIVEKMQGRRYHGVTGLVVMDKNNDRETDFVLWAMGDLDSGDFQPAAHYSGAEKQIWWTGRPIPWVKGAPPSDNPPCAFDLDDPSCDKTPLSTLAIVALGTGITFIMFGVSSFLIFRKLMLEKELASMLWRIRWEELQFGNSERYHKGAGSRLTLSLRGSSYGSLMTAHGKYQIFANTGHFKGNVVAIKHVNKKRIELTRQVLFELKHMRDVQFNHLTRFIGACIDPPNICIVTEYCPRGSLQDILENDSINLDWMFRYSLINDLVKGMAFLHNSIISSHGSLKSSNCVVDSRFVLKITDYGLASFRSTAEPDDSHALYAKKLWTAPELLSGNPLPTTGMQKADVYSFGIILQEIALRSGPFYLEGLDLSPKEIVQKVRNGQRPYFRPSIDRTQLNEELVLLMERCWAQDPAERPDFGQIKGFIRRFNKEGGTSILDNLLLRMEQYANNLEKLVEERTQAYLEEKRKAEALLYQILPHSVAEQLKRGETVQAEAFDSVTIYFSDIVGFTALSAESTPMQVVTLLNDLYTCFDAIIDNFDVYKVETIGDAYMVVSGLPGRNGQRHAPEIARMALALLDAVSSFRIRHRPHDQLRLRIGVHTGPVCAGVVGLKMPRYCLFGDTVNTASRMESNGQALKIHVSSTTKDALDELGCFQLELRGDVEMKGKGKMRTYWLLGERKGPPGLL

- cGMP in HAEC with 10^-6 M CNP in the presence of the NPR-B antibody (1:100): 0.08 pmol/mL
- cGMP in HAEC with 10^-6 M CNP, no antibody: 0.17 pmol/mL
Substance: human CNP (from UniProt P23582 74-126) (peptide)
